B1: CoV2-RBD-1C (printed as CoV2-RBD-QC in Table 1) (ssDNA)
DNA: CAGCACCGACCTTGTGCTTTGGGAGTGCTGGTCCAAGGGCGTTAATGGACA
B2: R7-02 hybrid (LGKGDFR peptide-DNA) (ssDNA)
DNA: GGAAGAGATGGCGACACGCAATCGTGGGTTGGGGATATAATGGTAAGCTGATCCTGATGG
modifications: 5'-hexynyl clicked to C-terminal azide-lysine tagged LGKGDFR peptide

Key:
[1] = biological target: SARS-CoV-2 spike RBD wild type (SARS-CoV-2, UniProt P0DTC2 SEQ:1-219); test: flow
Bovine serum albumin = Bovine serum albumin (Bos taurus, UniProt P02769 P02769:25-607); test: flow; settings: tags: Sigma-Aldrich; bead-immobilised
Bovine serum albumin, sequence (P02769 25-607, one chain of several): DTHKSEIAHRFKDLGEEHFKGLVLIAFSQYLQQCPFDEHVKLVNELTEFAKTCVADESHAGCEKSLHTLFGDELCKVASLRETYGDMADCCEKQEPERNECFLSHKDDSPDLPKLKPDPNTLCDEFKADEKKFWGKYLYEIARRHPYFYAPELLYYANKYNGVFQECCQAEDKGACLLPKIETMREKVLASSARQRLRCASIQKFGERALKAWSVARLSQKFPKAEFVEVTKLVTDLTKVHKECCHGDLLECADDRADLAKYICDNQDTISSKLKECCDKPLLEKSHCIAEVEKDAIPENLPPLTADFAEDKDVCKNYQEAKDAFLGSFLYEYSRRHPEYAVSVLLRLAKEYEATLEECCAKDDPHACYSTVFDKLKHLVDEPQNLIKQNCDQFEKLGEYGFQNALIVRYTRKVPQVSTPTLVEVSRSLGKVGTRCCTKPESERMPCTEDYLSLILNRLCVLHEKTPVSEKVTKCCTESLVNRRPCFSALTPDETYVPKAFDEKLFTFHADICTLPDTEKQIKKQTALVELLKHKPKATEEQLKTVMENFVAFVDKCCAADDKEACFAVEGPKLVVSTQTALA

| Binder | binding result [1] | binding result (Bovine serum albumin) |
| --- | --- | --- |
| B1 | binds | – |
| CGCAGCACCCAAGAACAAGGACTGCTTAGGATTGCGATAGGTTCGG (ssDNA) [CoV2-6C3] | binds | – |
| TCGAGTGGCTTGTTTGTAATGTAGGGTTCCGGTCGTGGGT (ssDNA) [Aptamer-1 core] | binds | – |
| B2 | – | no binding |
